According to the RNAGym collection of RNA variant scans (doi:10.7554/elife.80360):

B1: HDV Ribozyme (parent)
chain: GGCCGGCAUGGUCCCAGCCUCCUCGCUGGCGCCGGCUGGGCAACAUUCCGAGGGGACCGUCCCCUCGGUAAUGGCGAAUGGGACCCA

Variants of: B1
Assay: self-cleavage, relative activity (ratio to wild type); higher = more cleavage; co-transcriptional

Variant | self-cleavage
GGCCGGCAUGGUCCCAGCCUCCUCGCUGGCGCUCGCUGGGCAACAUUCCGAGGGGACCGUCCCCUCGGUAAUGGCGAAUGGGACCCA [C33U G34C] | 0.0978
GGCCGGCAUGGUCCCAGCCUCCUCGCUGGCGCUAGCUGGGCAACAUUCCGAGGGGACCGUCCCCUCGGUAAUGGCGAAUGGGACCCA [C33U G34A] | 0.293
GGCCGGCAUGGUCCCAGCCUCCUCGCUGGCGCUGGCUGGGCAACAUUCCGAGGGGACCGUCCCCUCGGUAAUGGCGAAUGCGACCCA [C33U G81C] | 0.119
GGCCGGCAUGGUCCCAGCCUCCUCGCUGGCGCUGGCUGGGCAACAUUCCGAGGGGACCGUCCCCUCGGUAAUGGCGGAUGGGACCCA [C33U A77G] | 0.554
GGCCGGCAUGGUCCCAGCCUCCUCGCUGGCGCUGGCUGGGCAACAUUCCGAGGGGACCGUCCCCUCGGUAAUGGCGUAUGGGACCCA [C33U A77U] | 0.439
GGCCGGCAUGGUCCCAGCCUCCUCGCUGGCGCUGGCUGGGCAACAUUCCGAGGGGACCGUCCCCUCGGUAAGGGCGAAUGGGACCCA [C33U U72G] | 0.405
GGCCGGCAUGGUCCCAGCCUCCUCGCUGGCGCUGGCUGGGCAACAUUCCGAGGGGCCCGUCCCCUCGGUAAUGGCGAAUGGGACCCA [C33U A56C] | 0.658
GGCCGGCAUGGUCCCAGCCUCCUCGCUGGCGCUGGCUGGGCAACAUUCCGAGGGGGCCGUCCCCUCGGUAAUGGCGAAUGGGACCCA [C33U A56G] | 0.665
GGCCGGCAUGGUCCCAGCCUCCUCGCUGGCGCUGGCUGGGCAACAUUCCGAGGGAACCGUCCCCUCGGUAAUGGCGAAUGGGACCCA [C33U G55A] | 0.972
GGCCGGCAUGGUCCCAGCCUCCUCGCUGGCGCUGGCUGGGCAACAUCCCGAGGGGACCGUCCCCUCGGUAAUGGCGAAUGGGACCCA [C33U U47C] | 0.682
GGCCGGCAUGGUCCCAGCCUCCUCGCUGGCGCUGGCUGGGCAACAUGCCGAGGGGACCGUCCCCUCGGUAAUGGCGAAUGGGACCCA [C33U U47G] | 0.692
GGCCGGCAUGGUCCCAGCCUCCUCGCUGGCGCUGGCUGGGCAACAUACCGAGGGGACCGUCCCCUCGGUAAUGGCGAAUGGGACCCA [C33U U47A] | 0.872
GGCCGGCAUGGUCCCAGCCUCCUCGCUGGCGCUGGCUGGGCAACAUUCCGAGGGGACCGUCCCCUCGGUAAUGGCGAAUGGGAACCA [C33U C84A] | 0.65
GGCCGGCAUGGUCCCAGCCUCCUCGCUGGCGCUGGCUGGGCAACAUUCCGAGGGGACCGUCCCCUCGGUAAUGGCGAAUGGGAUCCA [C33U C84U] | 0.479
GGCCGGCAUGGUCCCAGCCUCCUCGCUGGCGCUGGCUGGGCAACAUUCCGAGGGGACCGUCCCCUCGGUAAUGGCGAAUGGGAGCCA [C33U C84G] | 0.628
GGCCGGCAUGGUCCCAGCCUCCUCGCUGGCGCUGGCUGGGCAACAUUCCGAGGGGACUGUCCCCUCGGUAAUGGCGAAUGGGACCCA [C33U C58U] | 0.917

Variant | self-cleavage
GGCCGGCAUGGUCCCAGCCUCCUCGCUGGCGCUGGCUGGGCAACAUUCCGAGGGGACGGUCCCCUCGGUAAUGGCGAAUGGGACCCA [C33U C58G] | 0.929
GGCCGGCAUGGUCCCAGCCUCCUCGCUGGCGCUGGCUGGGCAACAUUCCGAGGGGACCGUCCCCUCGGUAAUGGCGAACGGGACCCA [C33U U79C] | 0.325
GGCCGGCAUGGUCCCAGCCUCCUCGCUGGCGCUGGCUUGGCAACAUUCCGAGGGGACCGUCCCCUCGGUAAUGGCGAAUGGGACCCA [C33U G38U] | 0.0978
GGCCGGCAUGGUCCCAGCCUCCUCGCUGGCGCUGGCUCGGCAACAUUCCGAGGGGACCGUCCCCUCGGUAAUGGCGAAUGGGACCCA [C33U G38C] | 0.125
GGCCGGCAUGGUCCCAGCCUCCUCGCUGGCGCUGGCUGGGCAACCUUCCGAGGGGACCGUCCCCUCGGUAAUGGCGAAUGGGACCCA [C33U A45C] | 0.494
GGCCGGCAUGGUCCCAGCCUCCUCGCUGGCGCUGGCUGGGCAACGUUCCGAGGGGACCGUCCCCUCGGUAAUGGCGAAUGGGACCCA [C33U A45G] | 0.886
GGCCGGCAUGGUCCCAGCCUCCUCGCUGGCGCUGGCUGGGCAACAUUCCUAGGGGACCGUCCCCUCGGUAAUGGCGAAUGGGACCCA [C33U G50U] | 0.92
GGCCGGCAUGGUCCCAGCCUCCUCGCUGGCGCUGGCUGGGCAACAUUCCGAGGGGACCGUCCCAUCGGUAAUGGCGAAUGGGACCCA [C33U C64A] | 0.591
GGCCGGCAUGGUCCCAGCCUCCUCGCUGGCGCUGGCUGGGCAACAUUCCGAGGGGACCGUCCCUUCGGUAAUGGCGAAUGGGACCCA [C33U C64U] | 0.785
GGCCGGCAUGGUCCCAGCCUCCUCGCUGGCGCUGGCUGGGCAACAUUCUGAGGGGACCGUCCCCUCGGUAAUGGCGAAUGGGACCCA [C33U C49U] | 1.06
GGCCGGCAUGGUCCCAGCCUCCUCGCUGGCGCUGGCUGGGCAACAUUCCGAGGGGACCGUCCCCUCGGUUAUGGCGAAUGGGACCCA [C33U A70U] | 0.755
GGCCGGCAUGGUCCCAGCCUCCUCGCUGGCGCUGGCUGGGCAACAUUCCGAGGGGACCGUCCCCUCGGUCAUGGCGAAUGGGACCCA [C33U A70C] | 0.931
GGCCGGCAUGGUCCCAGCCUCCUCGCUGGCGCUGGCUGGGCAACAUUCCGAGGGGACCAUCCCCUCGGUAAUGGCGAAUGGGACCCA [C33U G59A] | 0.897
GGCCGGCAUGGUCCCAGCCUCCUCGCUGGCGCUGGCUGUGCAACAUUCCGAGGGGACCGUCCCCUCGGUAAUGGCGAAUGGGACCCA [C33U G39U] | 0.58
GGCCGGCAUGGUCCCAGCCUCCUCGCUGGCGCUGGCUGCGCAACAUUCCGAGGGGACCGUCCCCUCGGUAAUGGCGAAUGGGACCCA [C33U G39C] | 0
GGCCGGCAUGGUCCCAGCCUCCUCGCUGGCGCUGGCUGGGCAACAUUCCGAGGGGACCGUCCCCUCGGUAAUGGCGAUUGGGACCCA [C33U A78U] | 0.378
